Results as given in the DeepSol protein solubility set.

Assay: soluble on expression in E. coli; label from the status in PepcDB or PDB records

| Sequence | soluble on expression in E. coli |
| --- | --- |
| MIIATAGHVDHGKTTLLQAITGVNADRLPEEKKRGMTIDLGYAYWPQPDGRVPGFIDVPGHEKFLSNMLAGVGGIDHALLVVACDDGVMAQTREHLAILQLTGNPMLTVALTKADRVDEARVDEVERQVKEVLREYGFAEAKLFITAATEGRGMDALREHLLQLPEREHASQHSFRLAIDRAFTVKGAGLVVTGTALSGEVKVGDSLWLTGVNKPMRVRALHAQNQPTETANAGQRIALNIAGDAEKEQINRGDWLLADVPPEPFTRVIVELQTHTPLTQWQPLHIHHAASHVTGRVSLLEDNLAELVFDTPLWLADNDRLVLRDISARNTLAGARVVMLNPPRRGKRKPEYLQWLASLARAQSDADALSVHLERGAVNLADFAWARQLNGEGMRELLQQPGYIQAGYSLLNAPVAARWQRKILDTLATYHEQHRDEPGPGRERLRRMALPMEDEALVLLLIEKMRESGDIHSHHGWLHLPDHKAGFSEEQQAIWQKAEPLFGDEPWWVRDLAKETGTDEQAMRLTLRQAAQQGIITAIVKDRYYRNDRIVEFANMIRDLDQECGSTCAADFRDRLGVGRKLAIQILEYFDRIGFTRRRGNDHLLRDALLFPEK | soluble |
| NKFECNLVHSKVPMGKFYFRSEPNNKISFISDIRGEGKEWQGATLISQNAPWGEELYRKVESSLTVTKPSRRFVFRKGAPSLMKAIAGGSWITLVLEGKDASALSEVRIPTIQIQKALGEFNACRERLPK | not soluble |
| MAHHHHHHMSVGKPITRDSSKQLWRHIKSSGEEELTYTHNPYDDSPNRRKEREKSLNVCRHYAEGRCNRGSTCRFHHETRHNIIVTPHVTPKFSSIAPLKGLPTSPLGAYLSSPPNRSCNGCLLSPTHHNNSMSYNSSTNSSMKILSESSSTIPHLQLPESLSTHCRSSTYVASGMNGEQPPHDVLILSSSLGSLNVGDHVSRNNGGFLLTAQQR | not soluble |
| MEAKEKKYGEIEIEKAQLEAWPNPNPERDYMIEITFPEFTCLCPRSGYPDFATIKIRYIPDKYIVELKSLKLWLNKFRNRYISHEAATNEIYQALYDLLKPRFLEVVGDFHPRGNVHTVVRVRSDENYGAAAAAALEHHHHHH | soluble |
| MAHHHHHHMFKCATRCLLDTKTVPLKPQRPFKLHTAGRTDMAPLPTQAVYDAEQLKQSLALMFRIRRMESLCDQSYKLKKIRGFCHLYIGQEAIPAGMENVLTFEDPIITGYRDHGWYISRGGKPEDVFAEMFGRQGGCSKGKGGSMHMYRVDNGFYGGNGIVGAQVSIGAGLAWRFAMENRDSPKHVAVTFYGDGAANQGQIYESMNIAALQRLPVIFAVENNHFGMGTSAARGSYQAEFYRRGDYIPGIKVDGMDVLAVQEGTRYARDYCMSGKGPIVMELDCYRYMGHSMSDPDNQYRTKSDIQHVKQERDCIRKMREFMATEGIMTEDEMSKMEKDVKKEVDQDLQKAQKQPMTKLDELFTDIYVGEQYEHRTCQGTVYHKP | not soluble |
| PEDPSDLLQHVKFQSSNFENILTWDSGPEGTPDTVYSIEYKTYGERDWVAKKGCQRITRKSCNLTVETGNLTELYYARVTAVSAGGRSATKMTDRFSSLQHTTLKPPDVTCISKVRSIQMIVHPTPTPIRAGDGHRLTLEDIFHDLFYHLELQVNRTYQMHLGGKQREYEFFGLTPDTEFLGTIMILVPTWAKESAPYMCRVKTLPDRTWT | soluble |
| MSLRVTEPEMDQNLRDAIRMVINELTSSSGEVSQWTLREITARYRNLYRIKDPFVLDYYINRYMSGLRSVYPLYINDAIERIMSNGYDRPVIVQYNGKYYETNITLKREDLDSIAIRVSQMMGKKISSGSPIAYGNLQNFRSIVTFGDDVTPFGSSLYLERRHVVADPEAMSSMKDPMVSAYLIMALENMRSIMIIGPDSPMKIAIIYHLIRMIGSEKKIAYIGENGRFDFPRNIVYMMPRERTVFSSEISRTDLINTALRQRPDFIVVNGLTARELPAAVQAITTGHPTLSSMDIDSIENFSSLFSDPSTGLSKDMISLFDVVIEIADNGEYVKAIYEYDRLEGQEVLYNVPFSADRKRKLVFSGYSGIFRRMSKVIGEDSFRQALENRMKELDGGEGHHHHHH | soluble |
| MAHHHHHHMSTNINEEKCLEGDDIKYEKPDTHKNFWKSFGLNNEAGKLLYHLYGESNKIKPNILSSKHDGDKNKNDKKKEDAKLNTTYRKPQIHYPSLKKKAVKENPIDTIKHRKPLSKILEETQNYDCIKDIPISIGMNRETEKNKLHNIFVEEKCLMVPPSCAPMILTQEEKKEIIEKAQQRYIYINEENKSREEKHIQALRNYKLELIQELNEKRKLLQDIINEDKNIQGNISINQSDKRVSNKGNSYNIIQIKNDIEQCQKSIKKIEDNLNTYE | not soluble |
| MSLCRVLAVKPSSYYDWMNRNISDQQIHRNQCELLVKAAHTETRERYGVDRLQAHLRQQGHYVSQYMIRSIKEEYGIKCRRHKRFKMTTNSNHNKLVYLNVLDQQFDAKHPNESWVSDITYIWTNEGWLYLAGVKDLYTKELVGYAINKRMTADLVCRALNMAIKNKRPRQGLIVHSDRGSQYCSHAYHKIIEQHQFTGSMSAKGNCFDNAPIESFWGVLKNELVYHQDYKTRFEAISDITQYIELEYNEERLAKHCFAATQDKSCARSGAREGHHHHHH | soluble |
| MKKSVDFIGVGTGPFNLSIAALSHQIEELNCLFFDEHPHFSWHPGMLVPDCHMQTVFLKDLVSAVAPTNPYSFVNYLVKHKKFYRFLTSRLRTVSREEFSDYLRWAAEDMNNLYFSHTVENIDFDKKSRLFLVQTSRGEYFARNICLGTGKQPYLPPCVKHVTQSCFHASEMNLRRPDLSGKRITVVGGGQSGADLFLNALRGEWGEAAEINWVSRRNNFNALDEAAFADEYFTPEYISGFSGLKEDIRHQLLDEQKMTSDGITADSLLTIYRELYHRFEVLRKPRNIRLLPSRSVTTLESSGPGWKLLMEHHLDRGRESLESDVVIFATGYRSALPQILPSLMPLITMHDKNTFKVRDDFTLEWSGPKENNIFAVNASMQTHGIAEPQLSLMAWRSARILNRVLGRDLFDLSMPPALIQWRSGSRKKPQPEAAALTHYTTNIQE | soluble |
| MEEIPEHEGYKFRVARPRTDFRGTHQYASPNAHMLIELGRHDDIWSLMYMVAESFVELPWTRCEETEVEHYMNQSTILRLFSDEKNPTRLNADMRRQLDEIDSMLKASKYYDSPNYDAVYQFFKDSMAKAKVTWDTPFDWEIGNTLSEETSKGVKRKMGGPWENPGLFFTVLQ | not soluble |
| AEAAKPATAADSKAAFKNDDQKSAYALGASLGRYMENSLKEQEKLGIKLDKDQLIAGVQDAFADKSKLSDQEIEQTLQAFEARVKSSAQAKMEKDAADNEAKGKEYREKFAKEKGVKTSSTGLVYQVVEAGKGEAPKDSDTVVVNYKGTLIDGKEFDNSYTRGEPLSFRLDGVIPGWTEGLKNIKKGGKIKLVIPPELAYGKAGVPGIPPNSTLVFDVELLDVKPAPKADAKPEADAKAADSAKK | soluble |
| CHEASAIGMKDTIGVGKGTVIFDDFEEADAIFVIGQNPGTNHPRMLEPLREAVKRGAQVICLNPLKERGLERFQNPQMPIEMLSNGSEPTNTAYLRPALGGDMAVFRGIAKFLLQWEREALQNGGKAVFDREFIKQHTIGIDEYLAEVDATSWEHIAEQSGLDLSEIEMVASMYRRAERVIMCWAMGLTQHRHSVPTIKEVANVQMLRGNVGKPGAGLSPVRGHSNVQGDRTMGIDEKPSDLLLDRIESRFNFD | not soluble |
| MKEKISKKEYNALIRKTGEKHFDGEKEEYGDGTVGLWTYELRKYKLKPPVKVKYVTQEEFGEFKDATNQRLTKIENALVAQGEQIRAQGEQLSQLIKVVLLQGEQIKSQGEQIKSLEHHHHHH | not soluble |
| MGSDKIHHHHHHMKAQEVPSTTFTGGETVLTFKGGVHPPELKEWSKDKPIERAPLPQKVFVFLSNHAGNPAKPVVSPGDEVKTGQVIGEPEGFISAYLHSPVTGRVLEIKKILHPILGKPIEAIVIERTSDDEWVHIETGDFERMSKEEILEIIKKAGIVGLGGAMFPTHVKLSPPPEKKVDTLIVNGAECEPVLTIDHRLMLERAEDILQGILIMMKVLGVQKAVVGVESNKMDAYHNLKKVFKGYPVDVALLRTKYPQGAEKQLIYAITGRMVPRGGLPMDVGVVVQNVGTCVAVKEAVVDGKPLVERGMTVSGDAVKNQKNLIVRIGTPVKDVIDYCGGIDENTERVILGGPMMGISITNLDIPVMKGTSGITAFLPKKSRPQKPCIRCSECVQVCPMNLQPYLLYLLSTKRKYDEAVENGLMDCIECGSCTYTCPSKIEHVRYIKLAKTVYRATRRGRR | not soluble |
